Measured values reported in patent US20090118127A1 (Janssen / Centocor, published 2009).

Key:
[1] = biological target: T1, human tumor necrosis factor alpha (TNFα) (human, UniProt P01375 77-233); test: Biacore (SPR), calculated KD
T1 construct: also called human TNFα

[2] = biological target: T1, human tumor necrosis factor alpha (TNFα); test: Biacore (SPR), 3 pairs of experiments
[3] = biological target: T1, human tumor necrosis factor alpha (TNFα); test: ELISA, human TNFα coated on the plate, bound antibody detected with HRP anti-human kappa
Experimental: Antibodies were assessed for binding to human TNFα using an ELISA format. Briefly, human TNFα was coated into the wells of a 96 well plate and candidate mAbs were incubated at various concentrations (20 to 0.2 ng/ml) and bound antibody was detected with HRP-labeled anti-human kappa light chain IgG (Jackson, ImmunoResearch, West Grove, Pa.).

T1 sequence (P01375 77-233 limits assumed): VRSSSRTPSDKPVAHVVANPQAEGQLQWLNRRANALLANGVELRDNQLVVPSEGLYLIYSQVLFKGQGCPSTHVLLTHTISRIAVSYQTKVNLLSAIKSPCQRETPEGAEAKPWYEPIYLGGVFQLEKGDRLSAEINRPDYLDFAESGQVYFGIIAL

B1: Structure Based Human Adapted C7 (antibody, V domains shown)
VH: EVQLVESGGGLVQPGGSLRLSCAASGFIFSNHWMNWVRQAPGKGLEWIGEIRSKSINSATHYAESVKGRFIISRDDNKNSLYLEMNSLKTEDTAEYYCARNYYGSTYDYWGQGTLVTVS
VL: EIVLTQSPDFQSVTPKEKVTITCRASQFVGSSIHWYQQKPDQSPKLLIKYASESMSGVPSRFSGSGSGTDFTFTISSLEAEDAATYYCQQSHSWPFTFGPGTKVDIK
- Kd [1]: 0.07 nM
- koff [2]: 5.63e-05 s⁻¹
- kon [2]: 803000 M⁻¹ s⁻¹
- EC50 (read off the curve) [3]: ~2 ng/mL
